T1: TIAM2, Q8IVF5
T1 sequence (Q8IVF5 885-986, limits assumed, looked up): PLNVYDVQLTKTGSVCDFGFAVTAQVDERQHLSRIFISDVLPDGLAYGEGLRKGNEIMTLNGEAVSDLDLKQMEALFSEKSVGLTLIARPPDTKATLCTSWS

T2: APBA3_1, O96018
T2 sequence (O96018 389-490, limits assumed, looked up): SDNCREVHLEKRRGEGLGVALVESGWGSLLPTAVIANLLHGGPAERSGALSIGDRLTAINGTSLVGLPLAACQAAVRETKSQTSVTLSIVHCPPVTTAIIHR

T3: HTRA4, P83105
T3 sequence (P83105 378-476, limits assumed, looked up): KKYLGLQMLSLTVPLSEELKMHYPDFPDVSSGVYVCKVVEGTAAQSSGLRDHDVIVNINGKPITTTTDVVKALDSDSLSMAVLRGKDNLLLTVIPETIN

T4: ARHGEF11, O15085
T4 sequence (O15085 42-136, limits assumed, looked up): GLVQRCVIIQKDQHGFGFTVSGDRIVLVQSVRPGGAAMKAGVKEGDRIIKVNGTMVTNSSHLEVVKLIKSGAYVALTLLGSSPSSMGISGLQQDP

T5: PDZD2_2, O15018
T5 sequence (O15018 329-429, limits assumed, looked up): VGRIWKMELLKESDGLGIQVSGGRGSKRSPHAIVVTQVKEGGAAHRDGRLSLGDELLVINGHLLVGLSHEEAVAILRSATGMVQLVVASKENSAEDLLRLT

T6: SNTB1, Q13884
T6 sequence (Q13884 107-205, limits assumed, looked up): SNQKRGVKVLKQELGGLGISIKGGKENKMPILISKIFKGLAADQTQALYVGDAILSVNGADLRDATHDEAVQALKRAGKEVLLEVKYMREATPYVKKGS

T7: SNTG2, Q9NY99
T7 sequence (Q9NY99 68-166, limits assumed, looked up): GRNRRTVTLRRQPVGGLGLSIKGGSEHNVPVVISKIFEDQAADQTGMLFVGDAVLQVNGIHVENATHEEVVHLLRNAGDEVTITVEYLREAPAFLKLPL

T8: NHERF3_4, Q5T2W1
T8 sequence (Q5T2W1 373-468, limits assumed, looked up): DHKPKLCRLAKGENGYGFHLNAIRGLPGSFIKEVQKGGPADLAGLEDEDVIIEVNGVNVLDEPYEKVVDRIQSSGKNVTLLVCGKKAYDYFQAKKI

T9: LIN7C, Q9NUP9
T9 sequence (Q9NUP9 88-185, limits assumed, looked up): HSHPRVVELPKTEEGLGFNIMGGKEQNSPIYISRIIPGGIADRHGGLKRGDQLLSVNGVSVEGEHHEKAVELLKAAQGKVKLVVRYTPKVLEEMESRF

T10: LNX2_3, Q8N448
T10 sequence (Q8N448 463-564, limits assumed, looked up): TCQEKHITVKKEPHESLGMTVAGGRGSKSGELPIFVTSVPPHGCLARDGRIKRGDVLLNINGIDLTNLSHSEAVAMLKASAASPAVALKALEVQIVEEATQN

T11: GRIP1_4, Q9Y3R0
T11 sequence (Q9Y3R0 467-571, limits assumed, looked up): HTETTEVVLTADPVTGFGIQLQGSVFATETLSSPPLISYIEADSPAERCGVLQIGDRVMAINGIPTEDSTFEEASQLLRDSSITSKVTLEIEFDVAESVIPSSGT

T12: PDZRN3_1, Q9UPQ7
T12 sequence (Q9UPQ7 244-349, limits assumed, looked up): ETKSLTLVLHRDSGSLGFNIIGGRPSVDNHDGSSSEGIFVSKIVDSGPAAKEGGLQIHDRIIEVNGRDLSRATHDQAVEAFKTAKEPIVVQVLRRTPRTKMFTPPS


Each binder was assayed against DLG2_2, Q15700 (assay: holdup assay). Details: plain residues with an end cap or a label only (N-terminal biotin on a linker: ado-ado).
Sequence of DLG2_2, Q15700 (Q15700 189-283): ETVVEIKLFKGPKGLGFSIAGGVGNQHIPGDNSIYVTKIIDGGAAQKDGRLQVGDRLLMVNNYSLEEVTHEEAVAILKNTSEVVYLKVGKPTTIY
Parameters: key: below the threshold = too weak to quantify, mostly under pKd 3.1 to 4
For SRPHTNETSL [MCC, P23508], the pKd was “below the threshold”. ATKDKKITTV [EXOC4, Q96A65] showed a pKd of 5.75.

The binders below were run against AHNAK1, Q09666 (assay: holdup assay). Details: plain residues with an end cap or a label only (N-terminal biotin on a linker: ado-ado).
Sequence of AHNAK1, Q09666 (Q09666 4-100): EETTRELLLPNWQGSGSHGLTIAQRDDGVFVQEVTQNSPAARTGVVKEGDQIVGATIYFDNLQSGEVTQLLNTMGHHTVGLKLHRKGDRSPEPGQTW
Parameters: key: below the threshold = too weak to quantify, mostly under pKd 3.1 to 4
With SRPHTNETSL [MCC, P23508] the pKd was “below the threshold”. ATKDKKITTV [EXOC4, Q96A65] was tested, and the pKd was “below the threshold”.

These binders were tested against LNX1_2, Q8TBB1 (assay: holdup assay). Details: plain residues with an end cap or a label only (N-terminal biotin on a linker: ado-ado).
Sequence of LNX1_2, Q8TBB1 (Q8TBB1 371-470): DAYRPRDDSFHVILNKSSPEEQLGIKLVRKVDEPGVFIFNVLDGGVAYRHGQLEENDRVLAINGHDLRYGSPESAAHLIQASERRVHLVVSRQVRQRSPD
Parameters: key: below the threshold = too weak to quantify, mostly under pKd 3.1 to 4
With SRPHTNETSL [MCC, P23508] the pKd was “below the threshold”. ATKDKKITTV [EXOC4, Q96A65] showed a pKd of 4.1.

What follows are binders tested against FRMPD2_2, Q68DX3 (assay: holdup assay). Details: plain residues with an end cap or a label only (N-terminal biotin on a linker: ado-ado).
Sequence of FRMPD2_2, Q68DX3 (Q68DX3 944-1038): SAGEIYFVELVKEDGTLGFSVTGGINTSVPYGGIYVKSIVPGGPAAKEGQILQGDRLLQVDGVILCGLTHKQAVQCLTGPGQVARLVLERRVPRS
Parameters: key: below the threshold = too weak to quantify, mostly under pKd 3.1 to 4
In the case of SRPHTNETSL [MCC, P23508], the pKd is reported as “below the threshold”. With ATKDKKITTV [EXOC4, Q96A65] the pKd was “below the threshold”.

Each binder was assayed against TJP1_3, Q07157 (assay: holdup assay). Details: plain residues with an end cap or a label only (N-terminal biotin on a linker: ado-ado).
Sequence of TJP1_3, Q07157 (Q07157 416-512): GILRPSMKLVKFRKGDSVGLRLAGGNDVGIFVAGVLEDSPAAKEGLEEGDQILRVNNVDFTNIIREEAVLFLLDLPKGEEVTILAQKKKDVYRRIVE
Parameters: key: below the threshold = too weak to quantify, mostly under pKd 3.1 to 4
In the case of SRPHTNETSL [MCC, P23508], the pKd is reported as “below the threshold”. ATKDKKITTV [EXOC4, Q96A65] was tested, and the pKd was “below the threshold”.

Each binder was assayed against T1, TIAM2, Q8IVF5 (assay: holdup assay). Details: plain residues with an end cap or a label only (N-terminal biotin on a linker: ado-ado).
Parameters: key: below the threshold = too weak to quantify, mostly under pKd 3.1 to 4
For SRPHTNETSL [MCC, P23508], the pKd was “below the threshold”. In the case of ATKDKKITTV [EXOC4, Q96A65], the pKd is reported as “below the threshold”.

The binders below were run against T2, APBA3_1, O96018 (assay: holdup assay). Details: plain residues with an end cap or a label only (N-terminal biotin on a linker: ado-ado).
Parameters: key: below the threshold = too weak to quantify, mostly under pKd 3.1 to 4
For SRPHTNETSL [MCC, P23508], the pKd was “below the threshold”. For ATKDKKITTV [EXOC4, Q96A65], the pKd was “below the threshold”.

The binders below were run against T3, HTRA4, P83105 (assay: holdup assay). Details: plain residues with an end cap or a label only (N-terminal biotin on a linker: ado-ado).
Parameters: key: below the threshold = too weak to quantify, mostly under pKd 3.1 to 4
With SRPHTNETSL [MCC, P23508] the pKd was “below the threshold”. ATKDKKITTV [EXOC4, Q96A65] was tested, and the pKd was 3.49.

What follows are binders tested against T4, ARHGEF11, O15085 (assay: holdup assay). Details: plain residues with an end cap or a label only (N-terminal biotin on a linker: ado-ado).
Parameters: key: below the threshold = too weak to quantify, mostly under pKd 3.1 to 4
SRPHTNETSL [MCC, P23508] gave a pKd of 4.3. Work on ATKDKKITTV [EXOC4, Q96A65] yielded a pKd of 4.38.

The binders below were run against LAP2, Q96RT1 (assay: holdup assay). Details: plain residues with an end cap or a label only (N-terminal biotin on a linker: ado-ado).
Sequence of LAP2, Q96RT1 (Q96RT1 other isoform, or with tags, fused parts or gaps): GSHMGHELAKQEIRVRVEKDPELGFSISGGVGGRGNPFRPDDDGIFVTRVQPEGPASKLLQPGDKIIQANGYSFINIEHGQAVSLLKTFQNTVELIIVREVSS
Parameters: key: below the threshold = too weak to quantify, mostly under pKd 3.1 to 4
In the case of SRPHTNETSL [MCC, P23508], the pKd is reported as “below the threshold”. ATKDKKITTV [EXOC4, Q96A65] showed a pKd of 3.54.

These binders were tested against T5, PDZD2_2, O15018 (assay: holdup assay). Details: plain residues with an end cap or a label only (N-terminal biotin on a linker: ado-ado).
Parameters: key: below the threshold = too weak to quantify, mostly under pKd 3.1 to 4
With SRPHTNETSL [MCC, P23508] the pKd was “below the threshold”. Binder ATKDKKITTV [EXOC4, Q96A65] has a pKd of 3.88.

Each binder was assayed against IL16_4, Q14005 (assay: holdup assay). Details: plain residues with an end cap or a label only (N-terminal biotin on a linker: ado-ado).
Sequence of IL16_4, Q14005 (Q14005 1229-1329): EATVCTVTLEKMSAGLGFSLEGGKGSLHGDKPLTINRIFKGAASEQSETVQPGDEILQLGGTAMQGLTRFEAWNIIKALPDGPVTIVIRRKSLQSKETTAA
Parameters: key: below the threshold = too weak to quantify, mostly under pKd 3.1 to 4
For SRPHTNETSL [MCC, P23508], the pKd was “below the threshold”. For ATKDKKITTV [EXOC4, Q96A65], the pKd was “below the threshold”.

Each binder was assayed against T6, SNTB1, Q13884 (assay: holdup assay). Details: plain residues with an end cap or a label only (N-terminal biotin on a linker: ado-ado).
Parameters: key: below the threshold = too weak to quantify, mostly under pKd 3.1 to 4
With SRPHTNETSL [MCC, P23508] the pKd was 4.67. ATKDKKITTV [EXOC4, Q96A65] showed a pKd of 4.34.

What follows are binders tested against Inadl_3, Q8NI35 (assay: holdup assay). Details: plain residues with an end cap or a label only (N-terminal biotin on a linker: ado-ado).
Sequence of Inadl_3, Q8NI35 (Q8NI35 359-469): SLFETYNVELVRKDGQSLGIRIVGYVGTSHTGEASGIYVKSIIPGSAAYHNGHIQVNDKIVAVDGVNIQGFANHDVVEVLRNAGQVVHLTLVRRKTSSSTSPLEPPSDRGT
Parameters: key: below the threshold = too weak to quantify, mostly under pKd 3.1 to 4
With SRPHTNETSL [MCC, P23508] the pKd was “below the threshold”. In the case of ATKDKKITTV [EXOC4, Q96A65], the pKd is reported as “below the threshold”.

Each binder was assayed against MAGI2_4, Q86UL8 (assay: holdup assay). Details: plain residues with an end cap or a label only (N-terminal biotin on a linker: ado-ado).
Sequence of MAGI2_4, Q86UL8 (Q86UL8 772-865): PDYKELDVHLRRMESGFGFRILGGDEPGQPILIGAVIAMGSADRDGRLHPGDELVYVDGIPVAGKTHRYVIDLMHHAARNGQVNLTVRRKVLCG
Parameters: key: below the threshold = too weak to quantify, mostly under pKd 3.1 to 4
In the case of SRPHTNETSL [MCC, P23508], the pKd is reported as “below the threshold”. Work on ATKDKKITTV [EXOC4, Q96A65] yielded a pKd of 4.51.

These binders were tested against LNX1_3, Q8TBB1 (assay: holdup assay). Details: plain residues with an end cap or a label only (N-terminal biotin on a linker: ado-ado).
Sequence of LNX1_3, Q8TBB1 (Q8TBB1 500-596): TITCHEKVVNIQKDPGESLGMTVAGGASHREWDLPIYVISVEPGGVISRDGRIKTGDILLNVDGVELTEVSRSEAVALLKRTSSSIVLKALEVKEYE
Parameters: key: below the threshold = too weak to quantify, mostly under pKd 3.1 to 4
With SRPHTNETSL [MCC, P23508] the pKd was “below the threshold”. ATKDKKITTV [EXOC4, Q96A65] was tested, and the pKd was “below the threshold”.

These binders were tested against T7, SNTG2, Q9NY99 (assay: holdup assay). Details: plain residues with an end cap or a label only (N-terminal biotin on a linker: ado-ado).
Parameters: key: below the threshold = too weak to quantify, mostly under pKd 3.1 to 4
SRPHTNETSL [MCC, P23508] showed a pKd of 4.66. ATKDKKITTV [EXOC4, Q96A65] showed a pKd of 3.92.

What follows are binders tested against T8, NHERF3_4, Q5T2W1 (assay: holdup assay). Details: plain residues with an end cap or a label only (N-terminal biotin on a linker: ado-ado).
Parameters: key: below the threshold = too weak to quantify, mostly under pKd 3.1 to 4
With SRPHTNETSL [MCC, P23508] the pKd was “below the threshold”. With ATKDKKITTV [EXOC4, Q96A65] the pKd was “below the threshold”.

Each binder was assayed against DLG1_3, Q12959 (assay: holdup assay). Details: plain residues with an end cap or a label only (N-terminal biotin on a linker: ado-ado).
Sequence of DLG1_3, Q12959 (Q12959 457-571): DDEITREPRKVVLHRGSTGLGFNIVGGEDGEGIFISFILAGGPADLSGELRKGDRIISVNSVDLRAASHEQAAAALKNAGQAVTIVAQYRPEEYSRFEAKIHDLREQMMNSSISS
Parameters: key: below the threshold = too weak to quantify, mostly under pKd 3.1 to 4
Binder SRPHTNETSL [MCC, P23508] has a pKd of 3.73. ATKDKKITTV [EXOC4, Q96A65] showed a pKd of 4.08.

Each binder was assayed against T9, LIN7C, Q9NUP9 (assay: holdup assay). Details: plain residues with an end cap or a label only (N-terminal biotin on a linker: ado-ado).
Parameters: key: below the threshold = too weak to quantify, mostly under pKd 3.1 to 4
Work on SRPHTNETSL [MCC, P23508] yielded a pKd of 3.65. In the case of ATKDKKITTV [EXOC4, Q96A65], the pKd is reported as “below the threshold”.

What follows are binders tested against Inadl_6, Q8NI35 (assay: holdup assay). Details: plain residues with an end cap or a label only (N-terminal biotin on a linker: ado-ado).
Sequence of Inadl_6, Q8NI35 (Q8NI35 1058-1167): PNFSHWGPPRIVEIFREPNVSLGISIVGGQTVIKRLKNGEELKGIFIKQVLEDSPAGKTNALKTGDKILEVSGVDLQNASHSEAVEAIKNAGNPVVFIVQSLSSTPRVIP
Parameters: key: below the threshold = too weak to quantify, mostly under pKd 3.1 to 4
SRPHTNETSL [MCC, P23508] showed a pKd of 3.83. In the case of ATKDKKITTV [EXOC4, Q96A65], the pKd is reported as 3.53.

The binders below were run against T10, LNX2_3, Q8N448 (assay: holdup assay). Details: plain residues with an end cap or a label only (N-terminal biotin on a linker: ado-ado).
Parameters: key: below the threshold = too weak to quantify, mostly under pKd 3.1 to 4
In the case of SRPHTNETSL [MCC, P23508], the pKd is reported as “below the threshold”. For ATKDKKITTV [EXOC4, Q96A65], the pKd was 3.48.

What follows are binders tested against T11, GRIP1_4, Q9Y3R0 (assay: holdup assay). Details: plain residues with an end cap or a label only (N-terminal biotin on a linker: ado-ado).
Parameters: key: below the threshold = too weak to quantify, mostly under pKd 3.1 to 4
With SRPHTNETSL [MCC, P23508] the pKd was “below the threshold”. For ATKDKKITTV [EXOC4, Q96A65], the pKd was 3.48.

Each binder was assayed against T12, PDZRN3_1, Q9UPQ7 (assay: holdup assay). Details: plain residues with an end cap or a label only (N-terminal biotin on a linker: ado-ado).
Parameters: key: below the threshold = too weak to quantify, mostly under pKd 3.1 to 4
Binder SRPHTNETSL [MCC, P23508] has a pKd of 4.99. Work on ATKDKKITTV [EXOC4, Q96A65] yielded a pKd of 3.52.

The binders below were run against SNX27, Q96L92 (assay: holdup assay). Details: plain residues with an end cap or a label only (N-terminal biotin on a linker: ado-ado).
Parameters: key: below the threshold = too weak to quantify, mostly under pKd 3.1 to 4
SRPHTNETSL [MCC, P23508] gave a pKd of 5.72. Binder ATKDKKITTV [EXOC4, Q96A65] has a pKd of 4.38.

These binders were tested against SCRIB_2, Q14160 (assay: holdup assay). Details: plain residues with an end cap or a label only (N-terminal biotin on a linker: ado-ado).
Sequence of SCRIB_2, Q14160 (Q14160 857-960): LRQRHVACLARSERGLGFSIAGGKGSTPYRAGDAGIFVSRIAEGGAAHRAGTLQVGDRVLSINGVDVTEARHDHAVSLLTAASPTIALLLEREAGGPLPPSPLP
Parameters: key: below the threshold = too weak to quantify, mostly under pKd 3.1 to 4
In the case of SRPHTNETSL [MCC, P23508], the pKd is reported as 4.28. Work on ATKDKKITTV [EXOC4, Q96A65] yielded a pKd of 3.49.

Source: paper PMC9482650, “Quantitative fragmentomics allow affinity mapping of interactomes” (Nature Communications, 2022)
